From patent US20190127480A1 (Regeneron, published 2019)

What was measured:
[1] = target: T1, human CD3 expressed on cells (Jurkat cells, a CD3+ human T-cell line; human PBMC T cells) (human, UniProt P07766 23-207; P04234 22-171); assay: FACS on Jurkat cells
T1 construct: Cell-surface CD3 within the T cell receptor complex
Description: FACS data was acquired using the following protocol: Cells at 2×10⁵ per well were incubated with serially diluted antibodies for 30 min on ice. Post incubation, cells were washed and secondary antibody was added and incubated for an additional 30 minutes. After incubation, cells were washed, re-suspended in cold PBS containing 1% BSA and analyzed by flow cytometry with viable Jurkat cells gated by side and forward scatters. The EC₅₀s for cell binding titration were determined using Prism software with values calculated using a 4-parameter non-linear regression analysis.

[2] = target: T1, human CD3 expressed on cells (Jurkat …); assay: cell-based or functional assay
[3] = target: T2, Soluble heterodimeric CD3 protein (hCD3-epsilon/hCD3-delta) with either a human Fc tag (hFcΔAdp/hFc) or a … (human, UniProt P07766 23-126; P04234 22-105); assay: SPR Biacore 25C antigen-capture
T2 construct: also called hCD3ε/δ; not shown: Fc tag: human (hFcΔAdp/hFc)
Procedure, shortened: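 Rate constants fitted to a 1:1 model, giving KD as kd/ka and dissociative half-life as ln2/(60·kd) minutes. Antibodies flowed over CD3ε/δ heterodimer captured on anti-human or anti-mouse Fc surfaces, run on a Biacore T200 at 25 °C.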

T1 sequence (P07766 23-207 limits assumed, chain 1 of 2): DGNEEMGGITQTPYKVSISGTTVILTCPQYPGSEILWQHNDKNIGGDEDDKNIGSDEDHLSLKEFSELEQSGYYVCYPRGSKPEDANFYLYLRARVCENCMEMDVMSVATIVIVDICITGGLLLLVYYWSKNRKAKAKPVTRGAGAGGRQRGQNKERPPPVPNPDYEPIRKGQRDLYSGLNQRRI
T1 sequence (P04234 22-171 limits assumed, chain 2 of 2): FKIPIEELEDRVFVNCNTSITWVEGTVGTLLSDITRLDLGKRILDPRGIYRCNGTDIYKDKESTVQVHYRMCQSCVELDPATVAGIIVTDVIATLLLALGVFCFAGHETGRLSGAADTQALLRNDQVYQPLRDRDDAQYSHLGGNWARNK
T2 sequence (P07766 23-126 limits assumed, stated change not applied, chain 1 of 2): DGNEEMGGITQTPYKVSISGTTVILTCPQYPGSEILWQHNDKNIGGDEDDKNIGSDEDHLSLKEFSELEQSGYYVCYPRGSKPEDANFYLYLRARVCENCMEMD
T2 sequence (P04234 22-105 limits assumed, stated change not applied, chain 2 of 2): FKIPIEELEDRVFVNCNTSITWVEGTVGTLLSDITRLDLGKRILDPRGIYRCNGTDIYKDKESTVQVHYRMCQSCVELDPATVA

B1: H2M3541N (antibody, mouse IgG2, V domains shown)
VH: EVQLVESGGGLVRPGRSLRLSCAASGFTFDDYTMHWVRQAPGKGLEWVSDISWNSGTIGYADSVKGRFTISRDNAKNSLYLQMNSLRPEDTALYYCAKDMSGYAHYYYYGMDVWGQGTTVTVSS
VL: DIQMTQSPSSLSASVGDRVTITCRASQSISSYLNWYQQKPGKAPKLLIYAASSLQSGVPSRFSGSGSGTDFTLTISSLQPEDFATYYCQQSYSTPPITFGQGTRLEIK
notes: H2M: mouse IgG2 Fc, human variable regions; divalent
EC50 [1]: 3.7 nM | EC50 [M] hPBMC Proliferation [2]: 6.4e-12 M | Kd [3]: 13.8 nM | T½ [3]: 10 min | koff [3]: 0.00116 s⁻¹ | kon [3]: 84000 M⁻¹ s⁻¹

B2: H2M2691N (antibody, mouse IgG2, V domains shown)
VH: EVQLVESGGGLVQPGRSLRLSCAASGFTFDDYTMHWVRQAPGKGLEWVSGISWNSGSIGYADSVKGRFTISRDNAKKSLYLQMNSLRAEDTALYYCAKDNSGYGHYYYGMDVWGQGTTVTVAS
VL: EIVMTQSPATLSVSPGERATLSCRASQSVSSNLAWYQQKPGQAPRLLIYGASTRATGIPARFSGSGSGTEFTLTISSLQSEDFAVYYCQHYINWPLTFGGGTKVEIK
notes: as for B1
EC50 [1]: 6.77 nM | EC50 [M] hPBMC Proliferation [2]: 3.43e-11 M | Kd [3]: 0.254 nM | T½ [3]: 1160 min | koff [3]: 9.98e-06 s⁻¹ | kon [3]: 39400 M⁻¹ s⁻¹

B3: H2M2862N (antibody, mouse IgG2, V domains shown)
VH: QVQLVESGGGVVQPGRSLRLSCAASGFTFRSYGMHWVRQAPGKGLEWVAMIYYDGNNKKYADSVRGRFTISRDNSKNTLYLQMNSLRVEDTAVYFCARGPGYNWLDPWGQGTLVTVSS
VL: EIVMTQSPATLSVSPGERATLSCRASQSVSRNLAWYQQKPGQAPRLLIYGASTRATDIPARFSGSGSGTEFILNISSLQSEDFALYYCQQYSNWPLTFGGGTEVEIK
notes: as for B1
EC50 [1]: 7.68 nM | EC50 [M] hPBMC Proliferation [2]: 6.72e-13 M | Kd [3]: 0.541 nM | T½ [3]: 36 min | koff [3]: 0.000321 s⁻¹ | kon [3]: 591000 M⁻¹ s⁻¹

B4: H2M2707N (antibody, mouse IgG2, V domains shown)
VH: QVQLVESGGGVVQPGRSLRLSCIASGFTFRSYGMHWVRQAPGKGLEWVAMIYYDGNNKYYADSVRGRFTISRDNSKNTLYLQMNSLRADDTAVYFCARGPGYNWLDPWGQGTLVTVSS
VL: EIVMTQSPATLSVSPGERATLSCRASQSVSSNLAWYQQKPGQAPRLLIYGASTRATGIPARFSGSGSGTEFTLTISSLQSEDFAVYYCQQYNNRPLTFGGGTKVEIK
notes: as for B1
EC50 [1]: 124 nM | EC50 [M] hPBMC Proliferation [2]: 1.92e-12 M | Kd [3]: 0.715 nM | T½ [3]: 41 min | koff [3]: 0.000285 s⁻¹ | kon [3]: 399000 M⁻¹ s⁻¹

B5: H2M2777N (antibody, mouse IgG2, V domains shown)
VH: QVQLVESGGGVVQPGRSLRLSCIASGFTFRSYGMHWVRQAPGKGLEWVAMIYYDGNNKYYADSVRGRFTISRDNSKNTLYLQMNSLRADDTAVYFCARGPGYNWLDPWGQGTLVTVSS
VL: EIVMTQSPATLSVSPGERATLSCRASQSVSSNLAWYQQKPGQAPRLLIYGASTRATGIPARFSGSGSGTEFTLTISSLQSEDFAVYYCQQYNNRPLTFGGGTKVEIK
notes: as for B1
EC50 [1]: 2.16 nM | EC50 [M] hPBMC Proliferation [2]: 2.51e-11 M | Kd [3]: 0.554 nM | T½ [3]: 36 min | koff [3]: 0.000321 s⁻¹ | kon [3]: 580000 M⁻¹ s⁻¹

B6: H2M2708N (antibody, mouse IgG2, V domains shown)
VH: QVQLVESGGGVVQPGRSLRLSCAASGFTFRSFGMHWVRQAPGRGLEWVAMIYFDGKNKYYADSVRGRFTISRDNSKNTLYLEMSSLRAEDTAVYFCARGPGYNWLDPWGQGTLVTVSS
VL: EIVMTQSPATLSVSPGERVTLSCRASQSISRNLAWYQQKPGQAPRLLIYGASTRATGVPARFSGSGSGTEFTLTISSLQSEDFAVFHCQQYNNRPLTFGGGTEVEIK
notes: as for B1
EC50 [1]: 0.658 nM | EC50 [M] hPBMC Proliferation [2]: 2.69e-08 M | Kd [3]: 0.131 nM | T½ [3]: 51 min | koff [3]: 0.000227 s⁻¹ | kon [3]: 1.73e+06 M⁻¹ s⁻¹

B7: H1M2692N (antibody, mouse IgG1, V domains shown)
VH: EVQLVESGGGLVQPGGSLRLSCAASGFSFDDYTMHWVRQPPGKGLEWVSGISWNSGSIGYADSVKGRFTISRDNAKNSLYLQMNSLRAGDTALYYCAKDNSGYGYYYYYGMDVWGQGTTVTVSS
VL: EIVMTQSPATLSVSPGERATLSCRASQSVSSNLAWYQQKPGQAPRLLIYGASTRATGIPARFSGSGSGTEFTLTISSLQSEDFAVYYCQQYYNWPLTFGGGTKVEIK
notes: H1M: mouse IgG1 Fc, human variable regions; divalent
EC50 [1]: 5.99 nM | EC50 [M] hPBMC Proliferation [2]: 1.42e-10 M | Kd [3]: 0.238 nM | T½ [3]: 1170 min | koff [3]: 9.9e-06 s⁻¹ | kon [3]: 41900 M⁻¹ s⁻¹

B8: H1M2712N (antibody, mouse IgG1, V domains shown)
VH: EVQLVESGGGLVQPGGSLRLSCAATGFTFDDFTMHWVRQAPGKGLEWVSGISWNSGSIGYVDSVKGRFTISRDNAKNSLYLQMNSLRAEDTALYYCAKDNSGYGYYYYGMDVWGQGTTVTVSS
VL: EIVMTQSPATLSVSPGERATLSCRASHSVSRNSAWYQQKPGQAPRLLIYGASTRATGIPARFSGSGSGTEFTLTISSLQSEDFAIYYCQQYNNWPLTFGGGTKVEIK
notes: H1M: mouse IgG1 Fc; divalent
EC50 [1]: 21.9 nM | EC50 [M] hPBMC Proliferation [2]: 1.28e-10 M | Kd [3]: 0.295 nM | T½ [3]: 846 min | koff [3]: 1.37e-05 s⁻¹ | kon [3]: 47500 M⁻¹ s⁻¹

B9: H2M2885N (antibody, mouse IgG2, V domains shown)
VH: QVQLVESGGGVVQPGRSLRLSCAASGFTFRSFGMHWVRQAPGRGLEWVAMIYFDGKNKYYADSVRGRFTISRDNSKNTLYLEMSSLRAEDTAVYFCARGPGYNWLDPWGQGTLVTVSS
VL: EIVMTQSPATLSVSPGERVILSCRASQSISRNLAWYQQKPGQAPRLLIYGATTRATGVPARFSGSGSGTEFTLTISSLQSEDFAVFYCQQYNNRPLTFGGGTEVEIK
notes: as for B1
EC50 [1]: 2.09 nM | EC50 [M] hPBMC Proliferation [2]: 2.49e-12 M | Kd [3]: 0.111 nM | T½ [3]: 76 min | koff [3]: 0.000152 s⁻¹ | kon [3]: 1.37e+06 M⁻¹ s⁻¹

B10: H2M2775N (antibody, mouse IgG2, V domains shown)
VH: QVQLVESGGGVVQPGRSLRLSCAASGFTFRSFGMHWVRQAPGRGLEWVAMIYFDGKNKYYADSVRGRFTISRDNSKNTLYLEMSSLRAEDTAVYFCARGPGYNWLDPWGQGTLVTVSS
VL: EIVMTQSPATLSVSPGERVILSCRASQSISRNLAWYQQKPGQAPRLLIYGATTRATGVPARFSGSGSGTEFTLTISSLQSEDFAVFYCQQYNNRPLTFGGGTEVEIK
notes: as for B1
EC50 [1]: 1.32 nM | EC50 [M] hPBMC Proliferation [2]: 1.09e-09 M | Kd [3]: 0.138 nM | T½ [3]: 53 min | koff [3]: 0.000216 s⁻¹ | kon [3]: 1.56e+06 M⁻¹ s⁻¹

B11: H2M2711N (antibody, V domains shown)
VH: QVQLVESGGGVVQPGRSLRLSCAASGFTFRSFGMHWVRQAPGRGLEWVAMIYFDGKNKYYADSVRGRFTISRDNSKNTLYLEMSSLRAEDTAVYFCARGPGYNWLDPWGQGTLVTVSS
VL: EIVMTQSPATLSVSPGERATLSCRASQSVSRNLAWYQQKPGQAPRLLIYGASTRATGVPARFSGSGSGTEFTLTISSLQSEDFAVFHCQQYNNRPLTFGGGTEVEIK
notes: as for B1
EC50 [1]: 1.16 nM | EC50 [M] hPBMC Proliferation [2]: 6.48e-10 M | Kd [3]: 0.151 nM | T½ [3]: 48 min | koff [3]: 0.00024 s⁻¹ | kon [3]: 1.59e+06 M⁻¹ s⁻¹

B12: H2M2710N (antibody, V domains shown)
VH: QVQLVESGGGVVQPGRSLRLSCAASGFTFRSFGMHWVRQAPGRGLEWVAMIYFDGKNKYYADSVRGRFTISRDNSKNTLYLEMSSLRAEDTAVYFCARGPGYNWLDPWGQGTLVTVSS
VL: EIVMTQSPATLSVSPGERATLSCRASQSVSRNLAWYQQKPGQAPRLLIYGASTRATGVPARFSGSGSGTEFTLTISSLQSEDFAVFHCQQYNNRPLTFGGGTEVEIK
notes: as for B1
EC50 [1]: 0.71 nM | EC50 [M] hPBMC Proliferation [2]: 2.11e-10 M | Kd [3]: 0.153 nM | T½ [3]: 48 min | koff [3]: 0.000243 s⁻¹ | kon [3]: 1.59e+06 M⁻¹ s⁻¹

B13: H2M2706N (antibody, mouse IgG2, V domains shown)
VH: QVQLVESGGGVVQPGRSLRLSCAASGFTFRSYAMHWVRQAPGKGLEWVAMVYYDGNNQYYADSVRGRFTISRDNSKNTLYLQMNSLRADDTAVYFCARGPGYNWLDPWGQGTLVTVSS
VL: EIVMTQSPATLSVSPGERATLSCRASQSVSRNLAWYQQKPGQAPRLLIYGASTRATGIPARFSGSGSGTDFTLTISSLQSEDFAVYYCQQYNNWPLTFGGGTKVVIK
notes: as for B1
EC50 [1]: 2.37 nM | EC50 [M] hPBMC Proliferation [2]: 3.86e-12 M | Kd [3]: 0.544 nM | T½ [3]: 38 min | koff [3]: 0.000306 s⁻¹ | kon [3]: 563000 M⁻¹ s⁻¹

B14: H2M2774N (antibody, mouse IgG2, V domains shown)
VH: QVQLVESGGGVVQPGRSLRLSCVASGFTFRSYGMHWVRQAPGKGLQWVAMIYYDGKNKYYADSVRGRFTISRDNSKNTLYLQMNSLRAEDTAMYFCARGPGYNWLDPWGQGTLVTVSS
VL: EIVMTQSPATLSVSPGERATLSCRASQRISSNLAWYQQKPGQAPRLLIYGASTRATGSPARFSGSGSGTEFTLTISSLQSEDVAVYYCQQHNNWPLTFGGGTKVEIK
notes: as for B1
EC50 [1]: 0.352 nM | EC50 [M] hPBMC Proliferation [2]: 4.92e-10 M | Kd [3]: 0.135 nM | T½ [3]: 34 min | koff [3]: 0.000336 s⁻¹ | kon [3]: 2.49e+06 M⁻¹ s⁻¹

B15: H2M2886N (antibody, mouse IgG2, V domains shown)
VH: QVQLVESGGGVVQPGRSLRLSCAASGFTFRSFGMHWVRQAPGRGLEWVAMIYFDGKNKYYADSVRGRFTISRDNSKNTLYLEMSSLRAEDTAVYFCARGPGYNWLDPWGQGTLVTVSS
VL: EIVMTQSPATLSVSPGERVILSCRASQSISRNLAWYQQKPGQAPRLLIYGATTRATGVPARFSGSGSGTEFTLTISSLQSEDFAVFYCQQYNNRPLTFGGGTEVEIK
notes: as for B1
EC50 [1]: 3.97 nM | EC50 [M] hPBMC Proliferation [2]: 2.69e-12 M | Kd [3]: 0.0956 nM | T½ [3]: 85 min | koff [3]: 0.000136 s⁻¹ | kon [3]: 1.42e+06 M⁻¹ s⁻¹

B16: H2M3540N (antibody, mouse IgG2, V domains shown)
VH: QVHLEESGGGVVQPGRSLRLSCSASGFTFSSYAMHWVRQAPGKGLEWVAVIWYDGTNKYYLDSVKGRFTISRDNSKNTLFLQMNSLRAEDTAVYYCARDRGSIITHWGQGTLVTVSS
VL: DIQMTQSPSSLSASIGDRVTITCRASQNISSYLNWYQQKPGKAPKLLIYAASSLQSGVPSRFSGSGSGTDFTLTISSLQPEDFATYYCQQTYSTPPITFGQGTRLEIK
notes: as for B1
EC50 [1]: 3.99 nM | EC50 [M] hPBMC Proliferation [2]: 3.16e-12 M | Kd [3]: 0.231 nM | T½ [3]: 20 min | koff [3]: 0.000587 s⁻¹ | kon [3]: 2.55e+06 M⁻¹ s⁻¹
